Reference: patent US7981863B2, “Treatment of Parkinson's disease with PDGF” (Neuronova AB, priority 2001, dated 2011)

Key:
Mouse Neural Stem Cells = test: Neuronal differentiation (β-III Tubulin) of adult mouse neural stem cells; type: cell-based; conditions: 1 nM, 7 days
Procedure: Adult mouse neurosperes were dissociated with trypsin (Gibco) into single cells and transferred to poly-D-Lysine plates (BD) in the above culture medium, without growth factors, supplemented with 1% Fetal Calf Serum (Gibco). The cells were incubated over night to adhere to the plate. The medium was changed to culture medium, without growth factors, supplemented with 1 nM PDGF-AA or PDFG-BB (both from R&D Systems). The medium with new substance added every second day. The cells were incubated for a total of 7 days.
The cells were washed two times with PBS (Gibco) and fixed for 15 min RT with 4% Formaldehyde (Sigma) and permeabilized 20 min RT in 0.1% Triton X-100 (Sigma) in PBS. After fixation and permeabilization the cells were labelled with mouse monoclonal anti-β-III Tubulin (1:500 Promega). Primary antibody was visualized with anti mouse Texas-Red (1:100 Vector Laboratories). All antibodies were diluted in PBS with 0.1% Triton X-100.
The cells were washed twice with PBS (Gibco) and lysed with 200 ul lysis buffer/well. The lysis buffer contained PBS, 0.1% Triton X-100, 1 mM EDTA and 1 tab1. Protease inhibitor cocktail (Roche). The samples were run on a 4-12% Bis-Tris gel (Novex) under reduced conditions with MOPS buffer (Novex) and blotted onto a Hybond ECL nitrocellulose membrane (Amersham Biotech). Blocked in 5% ECL-Block (Amersham Biotech) in PBS+0.1% Tween 20 (Sigma). The membranes were labelled with mouse monoclonal anti-β-III Tubulin (1:5000 Promega). The primary antibody was detected using a secondary antibody anti-mouse-HRP (1:10000 Amersham Biotech) and ECL Plus+ Western Blot Detection Kit (Amersham Biotech). All antibodies were diluted in PBS with 0.1% Triton X-100, 1% ECL Block. The signal were then captured on ECL Hyper Film (Amersham Biotech)

6-OHDA Lesioned Rats = test: i.c.v. infusion in 6-OHDA lesioned rats, BrdU / NeuN labelling; type: in vivo, rat
Procedure: Animal handling and surgical procedures were carried out according to the ethical and regulatory permits set forth by Jordbruksverket and Lund University. Adult female Sprague-Dawley rats (B&K Universal AB) rats weighing 220-250 g, were housed in pairs with a 12 h light-dark cycle with free access to food and water. To lesion the substantia nigra, rats were fixed into a stereotaxic frame and 6-OHDA ([…] in 0.02% ascorbate saline, Sigma) was injected at a rate of 1 μl/min in 2 deposits of 2 and 2.5 μl into the right ascending mesostriatal forebrain bundle at the following coordinates: 4.4 mm caudal to bregma, 1.2 mm lateral to midline, 7.8 mm below dura; 4.0 mm caudal, 0.8 mm lateral, 8.0 mm below dura, respectively (Paxinos and Watson, 1998). Three weeks after 6-OHDA injections, the completeness of the lesion was assessed with the amphetamine-induced rotation test. D-methylamphetamine (2.5 mg, i.p.) was injected 5 min prior to placing the rat in an automated rotormeter bowl that measured the number of rotations over 90 min.
Before implantation, an Alzet Model 2002 osmotic minipump (200 μl; flow rate: 0.5 μl/h, 12 μl/day) was prefilled with 200 μl of compound solution (see below) and placed in a NaCl (0.9%) solution warmed in water bath (37° C.) 36 hrs before implantation. Rats were anesthetized with halothane in a mixture of nitrous oxide/oxygen (70:30) and maintained with 2-3% halothane. For implantation, rats were placed in a stereotaxic frame and the cannula of the Alzet Brain Infusion kit II was placed into the right lateral ventricle (coordinates: AP=−0.3 mm posterior bregma, L=1.5 mm lateral to satura sagittalis, 4.5 mm the dura; Paxinos and Watson, 1998), and secured to the skull with screws and dental cement. The minipump was then placed subcutaneously in the mid-scapular region. The scalp was treated with lidocaine gel before suturing. Twelve days after insertion, the rats were briefly anaesthetized with halothane in order to remove the pump. Removed pumps had the remaining solution volume and weight recorded.
The effects of infused PDGF-BB and BDNF following 6-OHDA lesions were investigated at 2 different time points: at 12 days or 5 weeks after minipump insertion. Rats receiving human PDGF-BB (order # 220-BB-050; 50 μg, R&D Systems) each had 36 ng/d of PDGF dissolved in 0.1 M PBS (3 μg/ml). Rats receiving human recombinant BDNF (order # 248-BD-025; 25 μg, R&D Systems) each had 12 ng/d of BDNF dissolved in 0.1 M PBS (1 μg/ml). BrdU was co-administered with the compound solution in the minipumps by dissolving it into the 0.1 M PBS medium. Control rats received only BrdU/PBS infusions.
Brain tissue was obtained by anesthetizing the rat and transcardially perfusing with 0.9% saline followed by 4% paraformaldehyde (PFA). Brains were stored PFA for 2 hours, then transferred to 20% sucrose PBS and sectioned coronally on a sledge microtome at 30 μm thickness. Free-floating sections were stored in Walter's antifreeze solution at 4° C. until staining.
Following blocking, incubation of monoclonal rat anti-BrdU antibody (Harlan Sera Lab, UK) in 2% blocking solution occurred at a dilution of 1:100 at 4° C. for 36 hrs. The sections were then incubated with biotin-horse-[…] antibody (1:200) (Vector, CA) in 2% blocking solution for 2 hr and visualized with DAB-NiCl Vectastain Elite kit. The procedure for doubling labeling of BrdU with NeuN or TH was similar, except that a monoclonal rat anti-BrdU antibody (1:100; Sigma, Sweden) was incubated either with a monoclonal mouse anti-NeuN antibody (1:100; Chemicon, USA) or with a monoclonal anti-TH antibody (1:1000; Pelfreeze) in the appropriate 2% blocking solution in the dark for 36 to 48 hrs. For immunofluorescent visualization, sections were incubation in secondary antibodies: Cy3-conjugated donkey anti-rat (1:200; Jackson ImmunoResearch, PA) for BrdU; a biotinylated horse anti-mouse antibody (1:200; BA2001, Vector, CA) for NeuN; and a FITC-conjugated goat anti-rat (1:200;) for TH. […]

B1: PDGF-BB: human recombinant PDGF-BB, platelet derived growth factor B-chain homodimer (protein)
chain: SLGSLTIAEPAMIAECKTRTEVFEISRRLIDRTNANFLVWPPCVEVQRCSGCCNNRNVQCRPTQVQLRPVQVRKIEIVRKKPIFKKATVTLEDHLACKCETVAAARPVT
Q: Which results are given for B1?
A: number of β-III Tubulin positive cells in culture (Mouse Neural Stem Cells; compared to the control, FIG. 5): significantly increase the number of β-III Tubulin positive cells; levels of β-III Tubulin protein (Western blot) (Mouse Neural Stem Cells; compared with the control, FIG. 6): significantly increased levels of β-III Tubulin protein; neuronal differentiation of cultured mouse neural stem cells/progenitors (Mouse Neural Stem Cells; FIG. 5 and FIG. 6): trigger neuronal differentiation; absolute number of BrdU/NeuN double labelled cells in the striatum (6-OHDA Lesioned Rats; 5 weeks, FIG. 15): significantly more neurons; numbers of BrdU labelled cells in the denervated striatum (6-OHDA Lesioned Rats; 12 days after infusion, compared to PBS infusion, PDGF 36 ng/d, BDNF 12 ng/d): significantly elevated; numbers of BrdU labelled cells in the lesioned substantia nigra (6-OHDA Lesioned Rats; 12 days after infusion, compared to PBS treatment): significantly elevated; BrdU cells in the striatum co-labelled with NeuN (proportion of newly generated neurons) (6-OHDA Lesioned Rats; Week 5, no statistically significant differences): 20.9%
